Experimental data published in patent US20250283063, “NOVEL CRISPR-CAS12I SYSTEMS AND USES THEREOF” (HUIDAGENE THERAPEUTICS (SINGAPORE) PTE. LTD., published 2025).

Key:
[1] = target: T1, Cas12Max (xCas12i-N243R, v1.1) (N243R); experiment: cell_activity; PAM TTTG; on-target; conditions: tags: NLS
T1 chain: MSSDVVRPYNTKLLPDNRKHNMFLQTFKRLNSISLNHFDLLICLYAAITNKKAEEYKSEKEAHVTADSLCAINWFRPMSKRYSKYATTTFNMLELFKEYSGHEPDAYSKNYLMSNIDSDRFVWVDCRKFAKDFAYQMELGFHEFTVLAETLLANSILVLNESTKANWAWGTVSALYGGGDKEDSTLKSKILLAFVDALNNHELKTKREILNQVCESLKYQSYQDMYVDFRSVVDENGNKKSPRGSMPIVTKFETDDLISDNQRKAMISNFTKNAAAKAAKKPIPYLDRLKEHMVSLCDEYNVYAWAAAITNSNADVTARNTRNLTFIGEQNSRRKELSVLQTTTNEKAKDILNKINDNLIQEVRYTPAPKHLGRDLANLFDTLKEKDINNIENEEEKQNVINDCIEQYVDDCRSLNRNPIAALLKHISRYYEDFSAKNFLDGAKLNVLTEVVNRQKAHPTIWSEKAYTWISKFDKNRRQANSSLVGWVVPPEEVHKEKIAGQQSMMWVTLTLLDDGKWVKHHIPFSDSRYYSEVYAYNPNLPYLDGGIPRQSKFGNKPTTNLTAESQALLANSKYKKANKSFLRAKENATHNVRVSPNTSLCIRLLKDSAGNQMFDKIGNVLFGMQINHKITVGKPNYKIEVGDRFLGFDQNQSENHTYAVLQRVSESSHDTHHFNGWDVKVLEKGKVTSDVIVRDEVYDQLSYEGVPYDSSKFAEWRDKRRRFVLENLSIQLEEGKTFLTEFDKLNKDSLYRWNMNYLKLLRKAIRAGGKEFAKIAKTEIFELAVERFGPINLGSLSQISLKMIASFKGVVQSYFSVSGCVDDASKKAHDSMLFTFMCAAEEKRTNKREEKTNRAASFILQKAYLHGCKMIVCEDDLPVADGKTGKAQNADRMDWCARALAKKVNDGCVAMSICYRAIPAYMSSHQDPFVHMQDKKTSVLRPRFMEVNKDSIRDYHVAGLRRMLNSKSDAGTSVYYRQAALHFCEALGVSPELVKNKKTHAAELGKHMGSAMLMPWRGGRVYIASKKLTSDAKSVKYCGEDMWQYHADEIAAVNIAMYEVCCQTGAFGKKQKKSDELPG

[2] = target: T2, xCas12i v5.3 (N243R,D892R); experiment: cell_activity; PAM TTTG; on-target; conditions: tags: NLS
T2 chain: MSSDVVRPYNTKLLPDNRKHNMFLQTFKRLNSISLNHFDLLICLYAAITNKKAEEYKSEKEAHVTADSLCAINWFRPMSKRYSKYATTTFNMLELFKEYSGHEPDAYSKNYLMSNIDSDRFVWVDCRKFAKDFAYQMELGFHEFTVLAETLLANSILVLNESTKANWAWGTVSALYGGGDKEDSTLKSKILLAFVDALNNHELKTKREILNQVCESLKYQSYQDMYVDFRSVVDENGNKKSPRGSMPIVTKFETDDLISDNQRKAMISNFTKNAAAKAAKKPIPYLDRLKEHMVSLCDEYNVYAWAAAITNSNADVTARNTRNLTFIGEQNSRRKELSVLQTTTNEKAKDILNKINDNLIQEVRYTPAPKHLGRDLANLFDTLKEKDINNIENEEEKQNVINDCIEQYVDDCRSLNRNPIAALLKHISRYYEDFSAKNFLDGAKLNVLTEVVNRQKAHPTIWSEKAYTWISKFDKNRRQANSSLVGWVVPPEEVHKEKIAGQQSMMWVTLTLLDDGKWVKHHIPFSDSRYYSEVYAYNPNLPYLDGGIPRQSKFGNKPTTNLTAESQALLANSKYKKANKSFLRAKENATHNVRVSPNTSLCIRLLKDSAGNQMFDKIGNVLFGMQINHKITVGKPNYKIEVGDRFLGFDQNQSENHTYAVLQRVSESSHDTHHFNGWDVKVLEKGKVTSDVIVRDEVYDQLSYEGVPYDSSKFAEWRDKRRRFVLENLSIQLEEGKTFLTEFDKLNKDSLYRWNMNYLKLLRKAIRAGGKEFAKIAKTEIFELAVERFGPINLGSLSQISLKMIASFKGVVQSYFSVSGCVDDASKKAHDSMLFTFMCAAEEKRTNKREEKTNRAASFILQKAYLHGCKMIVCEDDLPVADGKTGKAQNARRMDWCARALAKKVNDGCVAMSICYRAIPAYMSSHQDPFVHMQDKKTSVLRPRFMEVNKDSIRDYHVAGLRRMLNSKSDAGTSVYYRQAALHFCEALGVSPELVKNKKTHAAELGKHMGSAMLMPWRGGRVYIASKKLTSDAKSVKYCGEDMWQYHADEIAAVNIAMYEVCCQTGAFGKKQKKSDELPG

B1: TTR.2 crRNA ; TTR ON.1 (ssRNA ; dsDNA)
RNA: AUGACUCAGAAAUGUGUCCCCAGUUGACACUAGAAGGGAUAUACAAAGUGGA
DNA 1: TTTGTAGAAGGGATATACAAAGTGGA
DNA 2: TCCACTTTGTATATCCCTTCTACAAA
[1]
  activity: 73.8%
[2]
  activity: 75.8%
